From the RNAGym collection of RNA variant scans (doi:10.1021/acssynbio.7b00057) come the findings set out here.

The chains are these.
B1: Pistol ribozyme (parent)
chain: GGGUCGUUGUUCCAUAAUCGCGUGGAUAUGGCACGCAAGUUUCUACCGGGCACCGUAAAUGUCCGACUGGAGCCGUUCGGGCGGCUAUAAACAGACCUCAGGCCCGAAGCGUGGCGGCACCUGCCGCCGGUGGUAAAAAAGAUCGGAAGAGCACACGUCU

In the data set the parent is B1. Nature of the data set: aptazyme ON/OFF ratio, guanine; higher = stronger switching; co-transcriptional cleavage with and without guanine.
In the case of U8A U10A U11C C13G, the “aptazyme ON/OFF ratio” value was found to be 1.02. Take U8A U10A U11C C13A: the “aptazyme ON/OFF ratio” value worked out at 1.03.

Turning to U8A U10A U11C C13U, the “aptazyme ON/OFF ratio” value came to 1.04. For U8A G9U U11C C12A C13U, the “aptazyme ON/OFF ratio” value stood at 1.11.

For U8A G9U U11C C12A C13G, the “aptazyme ON/OFF ratio” value was determined as 1.07. As for U8A G9U U11C C12A C13A, the “aptazyme ON/OFF ratio” value was found to be 1.14. With U8A G9U U10A U11A C12U C13A, the “aptazyme ON/OFF ratio” value came to 1.21.

On to U8A G9U U10A U11A C12U C13U, for which the “aptazyme ON/OFF ratio” value was found to be 1.53. Consider U8A G9U U10A U11A C12U C13G, for which the “aptazyme ON/OFF ratio” value turned out to be 1.36.

Consider U8A G9U C13A, for which the “aptazyme ON/OFF ratio” value worked out at 1.24.

U8A G9U C13U: the “aptazyme ON/OFF ratio” value turned out to be 1.4. With U8A G9U C13G the figure was 1.09; with U8A G9C U11G C12A C13G, 1.25. For U8A G9C U11G C12A C13U, the “aptazyme ON/OFF ratio” value was 1.2.

With U8A G9C U11G C12A C13A, the “aptazyme ON/OFF ratio” value came out at 1.1.

Consider U8A G9C U11G C12U C13G, for which the “aptazyme ON/OFF ratio” value worked out at 1.27. Consider U8A G9C U11G C12U C13A, for which the “aptazyme ON/OFF ratio” value is 1.31.

For the variant U8A G9C U11G C12U C13U, the “aptazyme ON/OFF ratio” value came out at 1.08.

Regarding U8A U10A U11A C12A C13A, the “aptazyme ON/OFF ratio” value is 1.21. With U8A U10A U11A C12A C13U the figure was 1.11. The value for U8A U10A U11A C12A C13G was 1.04; that for U8A G9U U11A C12G C13G was 1.3. Take U8A G9U U11A C12G C13U: the “aptazyme ON/OFF ratio” value came out at 1.3.

On to U8A G9U U11A C12G C13A, for which the “aptazyme ON/OFF ratio” value is 1.32. As for U8A G9U U10A U11G C12G C13G, the “aptazyme ON/OFF ratio” value worked out at 1.24. Turning to U8A G9U U10A U11G C12G C13A, the “aptazyme ON/OFF ratio” value worked out at 1.1. On to U8A G9U U10A U11G C12G C13U, for which the “aptazyme ON/OFF ratio” value is 1.31. With U8A G9U U10C U11C C13G, the “aptazyme ON/OFF ratio” value turned out to be 1.01.

For the variant U8A G9U U10C U11C C13A, the “aptazyme ON/OFF ratio” value turned out to be 1. As for U8A G9U U10C U11C C13U, the “aptazyme ON/OFF ratio” value was determined as 1.03. Consider U8A G9U U11G C12G C13G, for which the “aptazyme ON/OFF ratio” value turned out to be 1.24. The value for U8A G9U U11G C12G C13U was 1.16; that for U8A G9U U11G C12G C13A was 1.25; that for U8A U10A U11G C13A was 1.18.

For U8A U10A U11G C13G, the “aptazyme ON/OFF ratio” value amounted to 1.14. Consider U8A G9U U10C U11G C13U, for which the “aptazyme ON/OFF ratio” value is 1.14.

Take U8A G9U U10C U11G C13A: the “aptazyme ON/OFF ratio” value stood at 1.12.

Regarding U8A G9U U10C U11G C13G, the “aptazyme ON/OFF ratio” value worked out at 1.05. Regarding U8A G9U U10G U11A C12G C13U, the “aptazyme ON/OFF ratio” value was 1.28. As to U8A G9U U10G U11A C12G C13G, the “aptazyme ON/OFF ratio” value was determined as 1.31. Turning to U8A G9U U10G U11A C12G C13A, the “aptazyme ON/OFF ratio” value was 1.27. Turning to U8A G9U U11C C13U, the “aptazyme ON/OFF ratio” value came to 1.03. For U8A G9U U11C C13A, the “aptazyme ON/OFF ratio” value came out at 1.04.

With U8A G9U U11C C13G, the “aptazyme ON/OFF ratio” value came out at 1.02. With U8A G9U U10A U11C C12U C13A the figure was 1.25; with U8A G9U U10A U11C C12U C13G, 1.22; with U8A G9U U10A U11C C12U C13U, 1.18. Regarding U8A G9U U10A U11C C12A C13A, the “aptazyme ON/OFF ratio” value stood at 1.23. Turning to U8A G9U U10A U11C C12A C13G, the “aptazyme ON/OFF ratio” value was determined as 1.2. With U8A G9U U10A U11C C12A C13U the figure was 1.25; with U8A G9U C12U C13G, 1.25; with U8A G9U C12U C13U, 1.36.

As for U8A G9U C12U C13A, the “aptazyme ON/OFF ratio” value was determined as 1.36. With U8A G9U U10C U11A C13G the figure was 1.03. As to U8A G9U U10C U11A C13A, the “aptazyme ON/OFF ratio” value was 1.06.

U8A G9U U10C U11A C13U: the “aptazyme ON/OFF ratio” value came out at 1.17. With U8A G9U U10G C12U C13U the figure was 1.45. With U8A G9U U10G C12U C13A the figure was 1.31.

On to U8A G9U U10G C12U C13G, for which the “aptazyme ON/OFF ratio” value was determined as 1.27.

With U8A G9U U10G C12A C13U, the “aptazyme ON/OFF ratio” value turned out to be 1.5. U8A G9U U10G C12A C13A: the “aptazyme ON/OFF ratio” value is 1.18.

Regarding U8A G9U U10G C12A C13G, the “aptazyme ON/OFF ratio” value was 1.12. For the variant U8A U10A U11A C12A, the “aptazyme ON/OFF ratio” value came to 1.14. Consider U8A U10A U11A C12G, for which the “aptazyme ON/OFF ratio” value was determined as 1.07. With U8A U10A U11A C12U the figure was 1.09; with U8A G9U U11C C12G C13U, 1.16; with U8A G9U U11C C12G C13G, 1.16.

Regarding U8A G9U U11C C12G C13A, the “aptazyme ON/OFF ratio” value was 1.14. As for U8A G9U U11C C12G, the “aptazyme ON/OFF ratio” value came to 1.08.

With U8A G9U U11C C12U, the “aptazyme ON/OFF ratio” value was determined as 1.13.

Take U8A G9U U11C C12A: the “aptazyme ON/OFF ratio” value was determined as 1. With U8A G9U U10C U11C C12G C13G, the “aptazyme ON/OFF ratio” value is 1.08.

In the case of U8A G9U U10C U11C C12G C13U, the “aptazyme ON/OFF ratio” value is 1.02. Regarding U8A G9U U10C U11C C12G C13A, the “aptazyme ON/OFF ratio” value amounted to 1.07. U8A G9U U10G U11G C13G: the “aptazyme ON/OFF ratio” value came out at 1.06.

As for U8A G9U U10G U11G C13U, the “aptazyme ON/OFF ratio” value stood at 1.03. U8A G9U U10G U11G C13A: the “aptazyme ON/OFF ratio” value stood at 1.08.

Regarding U8A U10A U11A C12G C13A, the “aptazyme ON/OFF ratio” value amounted to 1.12. The value for U8A U10A U11A C12G C13U was 1.13. The value for U8A U10A U11A C12G C13G was 1.18; that for U8A G9U U10G U11A C12A was 1.21; that for U8A G9U U10G U11A C12U was 1.05. The value for U8A G9U U10G U11A C12G was 1.28.
